# In patent US20220000983A1 (UNITED STATES GOVERNMENT AS REPRESENTED BY THE DEPARTMENT …, published 2022):
# Starred links: 1 amine or outer side, 2 acyl side, 3 side chain; linkers in the order of their positions; H or OH if unused. Non-standard residues stand in square brackets, D forms with d. No end group written: not given here. *: point of attachment. Tyr(Me) = O-methyltyrosine, COc1ccc(C[C@H](N[*:1])C(=O)[*:2])cc1; Phenylacetyl(2,3,4,5,6-F5) = O=C(Cc1c(F)c(F)c(F)c(F)c1F)*; Phe(F5) = N[C@@H](Cc1c(F)c(F)c(F)c(F)c1F)C(=O)O; Phe(4-Cl) = N[C@@H](Cc1ccc(Cl)cc1)C(=O)O; hArg = N=C(N)NCCCC[C@H](N)C(=O)O; Nle = CCCC[C@H](N)C(=O)O; Orn = NCCC[C@H](N)C(=O)O; Abu = CC[C@H](N)C(=O)O; Ada = not defined here; Amp = not defined here; Cpa = not defined here; PhAc = O=C(Cc1ccccc1)*; Aoc = NCCCCCCCC(=O)O
# T1: GHRH receptor on rat pituitary cells (rat, UniProt Q02644 23-464)
# T1 sequence (looked up): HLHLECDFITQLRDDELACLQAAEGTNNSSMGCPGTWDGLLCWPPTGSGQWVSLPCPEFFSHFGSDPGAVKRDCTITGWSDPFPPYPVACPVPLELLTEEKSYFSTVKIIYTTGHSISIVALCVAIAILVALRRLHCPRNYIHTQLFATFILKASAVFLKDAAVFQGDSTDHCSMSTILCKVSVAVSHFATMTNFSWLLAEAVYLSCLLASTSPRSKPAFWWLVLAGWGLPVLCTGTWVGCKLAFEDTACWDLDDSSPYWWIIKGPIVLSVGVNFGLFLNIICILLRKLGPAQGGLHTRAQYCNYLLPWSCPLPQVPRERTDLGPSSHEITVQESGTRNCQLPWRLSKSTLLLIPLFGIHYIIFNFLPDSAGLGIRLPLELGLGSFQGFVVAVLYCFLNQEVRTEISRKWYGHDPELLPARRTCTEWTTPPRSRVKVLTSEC
# T2: GHRH receptor (membrane GHRH-receptors on human anterior pituitary cells) (human, UniProt Q02643 23-423)
# T2 construct: whole, on cells; Native receptor in membrane fractions prepared from bought human pituitary (National Hormone and Peptide Program), not a recombinant construct; also called pituitary type GHRH-receptor; pGHRH-R
# T2 sequence (looked up): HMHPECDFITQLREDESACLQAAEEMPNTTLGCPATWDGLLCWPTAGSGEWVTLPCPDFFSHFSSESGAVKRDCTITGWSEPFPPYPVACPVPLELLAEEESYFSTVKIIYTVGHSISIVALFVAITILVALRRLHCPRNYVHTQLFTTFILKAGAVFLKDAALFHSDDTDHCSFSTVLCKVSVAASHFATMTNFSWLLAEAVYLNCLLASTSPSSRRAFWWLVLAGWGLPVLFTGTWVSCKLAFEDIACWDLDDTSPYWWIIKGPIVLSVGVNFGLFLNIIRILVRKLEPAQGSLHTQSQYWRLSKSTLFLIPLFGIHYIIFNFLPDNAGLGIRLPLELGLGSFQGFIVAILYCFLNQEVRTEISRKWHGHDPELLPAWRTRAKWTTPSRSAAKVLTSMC
# Experiments:
# [1] = target: GHRH receptor (membrane GHRH-receptors on human anterior pituitary cells) (human) (UniProt Q02643); assay: competitive radioligand binding; displacement of 125I-[His1,Nle27]-hGH-RH(1-32)NH2 (0.2 nM) from human pituitary membrane fractions
# [2] = target: T1, GHRH receptor on rat pituitary cells; assay: cell-based or functional assay
# [3] = target: T2, GHRH receptor (membrane GHRH-receptors …); assay: competitive radioligand binding; displacement of 125I-[His1,Nle27]-hGH-RH(1-32)NH2 (0.2 nM) from human pituitary membrane fractions
# Experimental: Receptor binding affinities in vitro. Preparation of human pituitary membrane fractions and receptor binding of analogs of GH-RH were performed (Halmos G, Rekasi Z, Szoke B, Schally A V. (1993) Receptor 3:87-97). Human pituitary was purchased from the National Hormone and Peptide Program. […] The values were calculated from technical duplicate tubes.
# Nineteen new AVR analogs of GHRH were tested in the receptor binding assay. Table 6 presents the IC₅₀ values of GHRH antagonists to membrane GHRH-receptors binding on human anterior pituitary cells.
Molecule,Relative GH release [2],IC50 [3],other results
AVR-332 (peptide),,,IC50 [1]: 0.34 nM
MIA-602 (peptide),,,IC50 [1]: 0.27 nM; Relative GH release (relative to control (1.00)) [2]: 0.78
AVR-540 (peptide),,,Relative GH release (relative to control (1.00)) [2]: 0.88
"{PhAc-Ada}-Y[dR]DAI[Cpa]TAR[Amp]RKVL[Abu]QLSAH[Orn]LLQDI[Nle][dR][hArg]-NHMe (reading uncertain, Synthetic GHRH antagonist) [AVR-201]",,0.61 nM,
"{Phenylacetyl(2,3,4,5,6-F5)-Ada}-Y[dR]DAI[Phe(4-Cl)]TN[hArg][Tyr(Me)]RKVL[Abu]QLSARKLLQDI[Nle][dR][hArg]-{Aoc-NHMe} (reading uncertain, Synthetic GHRH antagonist) [AVR-322]",,0.25 nM,
"{PhAc-Ada}-Y[dR]DAI[Phe(4-Cl)]TN[hArg][Tyr(Me)]RKVL[Abu]QLSARKLLQDI[Nle][dR][hArg]-{Aoc-NHMe} (reading uncertain, Synthetic GHRH antagonist) [AVR-321]",,0.23 nM,
"{PhAc-Ada}-Y[dR]DAI[Cpa]TARYRKVL[Abu]QLSARKLLQDI[Nle][dR][hArg]-NH2 (reading uncertain, Synthetic GHRH antagonist) [AVR-107]",,0.61 nM,
"{Phenylacetyl(2,3,4,5,6-F5)-Ada}-Y[dR]DAI[Phe(F5)]TA[hArg][Tyr(Me)]RKVL[Abu]QLSARKLLQDI[Nle][dR][hArg]-{Ada-NH2} (not fully specified; reading uncertain) [AVR-352]",0.72 relative to control (1.00),0.09 nM,
"{dF-Ada}-Y[dR]DAI[Phe(4-Cl)]TAR[Tyr(Me)]RKVL[Abu]QLSAH[Orn]LLQDI[Nle][dR][hArg]-NH2 (reading uncertain, Synthetic GHRH antagonist) [AVR-120]",,0.48 nM,
"{Phenylacetyl(2,3,4,5,6-F5)-Ada}-Y[dR]DAI[Phe(F5)]TA[hArg][Tyr(Me)]RKVL[Abu]QLSARKLLQDI[Nle][dR]-NHMe (reading uncertain) [AVR-235]",0.6 relative to control (1.00),0.49 nM,
"{Phenylacetyl(2,3,4,5,6-F5)-Ada}-Y[dR]DAI[Phe(4-Cl)]TN[hArg][Tyr(Me)]RKVL[Abu]QLSARKLLQDI[Nle][dR][hArg]-{Ada-NH2} (reading uncertain, Synthetic GHRH antagonist) [AVR-333]",0.88 relative to control (1.00),0.3 nM,
"{PhAc-Ada}-Y[dR]DAI[Phe(4-Cl)]TAR[Phe(F5)]RKVL[Abu]QLSAH[Orn]LLQDI[Nle][dR][hArg]-NH2 (reading uncertain, Synthetic GHRH antagonist) [AVR-116]",,0.5 nM,
"{PhAc-Ada}-Y[dR]DAI[Phe(4-Cl)]TNR[Tyr(Me)]RKVL[Abu]QLSARKLLQDI[Nle][dR][hArg]-NHMe (reading uncertain, Synthetic GHRH antagonist) [AVR-234]",,0.45 nM,
"{PhAc-Ada}-Y[dR]DAI[Phe(4-Cl)]TAR[Tyr(Me)]RKVL[Abu]QLSAH[Orn]LLQDI[Nle][dR][hArg]-NH2 (reading uncertain, Synthetic GHRH antagonist) [AVR-104]",,0.59 nM,

# Second part, led by results:
Relative GH release [2],IC50 [3],Molecule,other results
0.82 relative to control (1.00),0.15 nM,"{Phenylacetyl(2,3,4,5,6-F5)-Ada}-Y[dR]DAI[Phe(F5)]TA[hArg][Tyr(Me)]H[Orn]VL[Abu]QLSAH[Orn]LLQDI[Nle][dR][hArg]-{Ada-NH2} (reading uncertain, Synthetic GHRH antagonist) [AVR-553]",
,0.53 nM,{PhAc-Ada}-Y[dR]DAI[Cpa]TA[hArg][Phe(F5)]H[Orn]VL[Abu]QLSAH[Orn]LLQDI[Nle][dR][hArg]-NH2 (reading uncertain) [MIA-690],
0.9 relative to control (1.00),0.14 nM,"{Phenylacetyl(2,3,4,5,6-F5)-Ada}-Y[dR]DAI[Phe(4-Cl)]TA[hArg][Phe(F5)]RKVL[Abu]QLSARKLLQDI[Nle][dR][hArg] (not fully specified (C-terminus); reading uncertain) [AVR-354]",
1.1 relative to control (1.00),0.25 nM,"{Phenylacetyl(2,3,4,5,6-F5)-Ada}-Y[dR]DAI[Cpa]TA[hArg][Phe(F5)]H[Orn]VL[Abu]QLSAH[Orn]LLQDI[Nle][dR][hArg]-{Ada-NHMe} (reading uncertain, Synthetic GHRH antagonist) [AVR-543]",
,0.31 nM,"{Phenylacetyl(2,3,4,5,6-F5)-Ada}-Y[dR]DAI[Cpa]TNR[Tyr(Me)]RKVL[Abu]QLSAH[Orn]LLQDI[Nle][dR][hArg]-{Ada-NH2} (reading uncertain, Synthetic GHRH antagonist) [AVR-620]",
0.65 relative to control (1.00),0.11 nM,"{Phenylacetyl(2,3,4,5,6-F5)-Ada}-Y[dR]DAI[Phe(4-Cl)]TA[hArg][Phe(F5)]RKVL[Abu]QLSARKLLQDI[Nle][dR][hArg]-{Ada-NH2} (reading uncertain, Synthetic GHRH antagonist) [AVR-353]",
,0.17 nM,"{Phenylacetyl(2,3,4,5,6-F5)-Ada}-Y[dR]DAI[Cpa]TA[hArg][Phe(F5)]H[Orn]VL[Abu]QLSAH[Orn]LLQDI[Nle][dR][hArg]-{Ada-NH2} (reading uncertain, Synthetic GHRH antagonist) [AVR-552]",
,0.21 nM,"{Phenylacetyl(2,3,4,5,6-F5)-Ada}-Y[dR]DAI[Cpa]TA[hArg][Phe(F5)]H[Orn]VL[Abu]QLSAH[Orn]LLQDI[Nle][dR][hArg]-NHMe (reading uncertain) [AVR-542]",
